Biological target: phosphorylated Smad3 (pSmad3) (UniProt Q8BUN5)
Assay: cell-based or functional assay

phosphorylated Smad3 (pSmad3), sequence (Q8BUN5 2-425 limits assumed): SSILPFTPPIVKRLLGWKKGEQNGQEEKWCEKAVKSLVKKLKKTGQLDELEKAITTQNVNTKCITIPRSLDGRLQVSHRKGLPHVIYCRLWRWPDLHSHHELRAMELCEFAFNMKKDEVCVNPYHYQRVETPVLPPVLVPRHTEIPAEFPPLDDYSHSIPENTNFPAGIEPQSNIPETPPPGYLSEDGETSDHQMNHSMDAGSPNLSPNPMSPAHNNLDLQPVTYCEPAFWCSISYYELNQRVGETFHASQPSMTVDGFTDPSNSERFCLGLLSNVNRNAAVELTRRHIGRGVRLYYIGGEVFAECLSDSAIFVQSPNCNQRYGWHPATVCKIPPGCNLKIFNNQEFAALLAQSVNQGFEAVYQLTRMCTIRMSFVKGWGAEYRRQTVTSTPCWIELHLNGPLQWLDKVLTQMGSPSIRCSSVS

Substance: TAT-SH3 (TAT-SNX9(SH3) fusion polypeptide containing the full length SH3 domain, amino acids 1 to 62) (from UniProt Q9Y5X1 1-62) (designed binder)
- decrease in Smad3-dependent luciferase activity: 70%
